Source: US20080085859A1, “Drug Promoting Ceramide Transport, Base Sequence for Producing the Drug, Method of Measuring Activity of Promoting Ceramide Release and Method of Measuring Activity of Promoting Intermembrane Ceramide Transfer” (JAPAN SCIENCE AND TECHNOLOGY AGENCY, priority 2003, published 2008)

Columns and labels:
[1] = ceramide release promotion activity from membrane; assay type: biochemical; settings: 14C-ceramide in phosphatidylcholine/phosphatidylethanolamine membrane, 37° C. 30 minutes, 14C in supernatant; FIGS. 14, 16
Protocol: Hereinafter, the standard method will be described in detail, however, even if the described conditions are changed, a method of detecting ceramide release promotion activity having means for separating releasing ceramide by a centrifugation principally belongs to the present invention. The lipid membrane containing ceramide was prepared so that it contains 12.5 nCi (225 pmol) per sample of [palmitoyl-1-^14C]N-palmitoyl-D-ethyro-sphigosine (hereinafter, may be referred to as ^14C-ceramide) on the basis of the mixed lipid consisting of phosphatidylcholine and phosphatidylethanolamine derived from egg yolk at the ratio of 4:1 and its concentration becomes 2.5 mg/mL. This lipid membrane is required at the rate of 20 μL per one sample of the activity measurement. […]
hCERT protein or its recombinant protein described above as a protein sample to be targeted (under the standard conditions, the amount of protein corresponding to 450 picomoles, which is 2-fold molar equivalent amount of ceramide contained in the donating membrane was used) were messed up to 30 μL using the buffer 2 [50 mM Hepes-NaOH buffer (pH7.4) to which 100 mM NaCl and 0.5 mM EDTA have been added]. […] The activity for promoting ceramide release with hCERT was calculated by measuring the radioactive activity of ^14C in the supernatant fraction using a liquid scintillation counter. […]

LY-A2 cell [2] = test: metabolism labeling of lipid using [14C] serine and [14C] choline; assay type: cell-based, Chinese hamster; settings: LY-A2/hCERT cell
Protocol: CHO-K1 cell, LY-A2 cell, and LY-A2/hCERT cell were inoculated at the cell density of 1.0×10^6 per culture dish having the 60-mm diameter, and cultured at 33° C. overnight. Subsequently, it was exchanged with […] of Nutridoma medium, after [^14C] serine (0.75 μCi) or [^14C] choline (1.0 μCi) have been added, in the case where [^14C] serine is added, it was cultured for 2 hours, and in the case where [^14C] choline is added, it was cultured at 33° C. for 5 hours. However, in the case where the influence on (1R, 3R) HPA-12 is analyzed, after it was pretreated at […] for 15 minutes in 1.5 mL of Nutridoma medium to which 1 μM of (1R,3R) HPA-12 has been added (in control experiment, dimethylsulfoxide used for dissolving a drug was added at the concentration corresponding to 0.01% of the final concentration), [^14C] serine was added, and cultured at 33° C. for 2 hours. After the cell was washed twice in 2 mL of cooled PBS, dissolved in 900 μL of sodium dodecyl sulfate (SDS), then, 800 μL and 20 μL of dissolved matter were used for determining lipid extraction and protein concentration. For the purpose of analyzing lipid labeled with [^14C] serine, the lipid was separated by TLC by making acetic methyl/n-propanol/chloroform/methanol/0.25% KCl (25:25:25 10:9, volume ratio) development solvent. The radioactive lipid separated on the plate was detected and analyzed by an image analyzer.

LY-A2 cell [3] = test: cell labeling using C5-DMB-Cer and fluorescence microscopy (ER to Golgi apparatus); assay type: cell-based, Chinese hamster; settings: C5-DMB-Cer, traced at 33° C. 15 minutes, LY-A2/hCERT, FIG. 6
Protocol: The present inventors have already made it clear that the activity of ATP dependent transport from the endoplasmic reticulum of natural ceramide (hereinafter, also referred to as ER) to Golgi apparatus can be qualitatively evaluated from the analysis of reallocation from ER of C5-DMB-Cer which is a fluorescent ceramide analogue to Golgi apparatus (J. Cell Biol. 144,673-685, 1999). As described in detail, the cell was exposed to C5-DMB-Cer at 4° C. for 30 minutes for the purpose of performing the pulse labeling of a variety of organelle membranes within a cell containing ER, after washing, it was traced at 33° C. for 15 minutes by a fluorescene microscopy observation method. A method of performing cell labeling using C5-DMB-Cer and a method of performing an observation by a fluorescence microscopy were carried out by a method of Yasuda et al (J. Biol. Chem. 276, 43994-44002, 2001) and a method of Fukasawa et al (J. Cell Biol. 144, 673-685, 1999). Specifically, after CHO-K1 cell, LY-A2 cell and LY-A2/hCERT cell grown on a coverslip made of glass were treated at 4° C. for 30 minutes in F12 medium containing 1 micro-M C5-DMB-Cer, it was washed three times in 1 mL of F12 medium. […] The sample was observed under the fluorescence microscopy immediately after it has been fixed and photographed with a digital CCD camera.

B1: hCERT protein: human CERT protein having an amino acid sequence of SEQ ID NO:1 (protein)
chain: MSDNQSWNSSGSEEDPETESGPPVERCGVLSKWTNYIHGWQDRWVVLKNNALSYYKSEDETEYGCRGSICLSKAVITPHDFDECRFDISVNDSVWYLRAQDPDHRQQWIDAIEQHKTESGYGSESSLRRHGSMVSLVSGASGYSATSTSSFKKGHSLREKLAEMETFRDILCRQVDTLQKYFDACADAVSKDELQRDKVVEDDEDDFPTTRSDGDFLHSTNGNKEKLFPHVTPKGINGIDFKGEAITFKATTAGILATLSHCIELMVKREDSWQKRLDKETEKKRRTEEAYKNAMTELKKKSHFGGPDYEEGPNSLINEEEFFDAVEAALDRQDKIEEQSQSEKVRLHWPTSLPSGDAFSSVGTHRFVQKVEEMVQNHMTYSLQDVGGDANWQLVVEEGEMKVYRREVEENGIVLDPLKATHAVKGVTGHEVCNYFWNVDVRNDWETTIENFHVVETLADNAIIIYQTHKRVWPASQRDVLYLSVIRKIPALTENDPETWIVCNFSVDHDSAPLNNRCVRAKINVAMICQTLVSPPEGNQEISRDNILCKITYVANVNPGGWAPASVLRAVAKREYPKFLKRFTSYVQEKTAGKPILF
modifications: HeLa cell
- activity for promoting ceramide release [1]: detected depending on the amount of hCERT and the length of incubating time
- PC synthesizing rate (LY-A2 cell [2]; radioactive choline, FIG. 4(B)): at the wild type level
- SM biosynthesizing rate (LY-A2 cell [2]; radioactive choline, FIG. 4(B)): recovered to the wild type level
- SM biosynthesis speed (LY-A2 cell [2]; radioactive serine, FIG. 4(A)): recovered to the wild type level
- accumulation of DMB fluorescence to Golgi apparatus region (LY-A2 cell [3]): accumulation comparable to CHO-K1 cell
